# PMC10786891, “Massively parallel profiling of RNA-targeting CRISPR-Cas13d”
# T1: EsCas13d, nuclease-dead (Eubacterium siraeum, UniProt B0MS50, R295A;H300A;R849A;H854A)
# T1 sequence: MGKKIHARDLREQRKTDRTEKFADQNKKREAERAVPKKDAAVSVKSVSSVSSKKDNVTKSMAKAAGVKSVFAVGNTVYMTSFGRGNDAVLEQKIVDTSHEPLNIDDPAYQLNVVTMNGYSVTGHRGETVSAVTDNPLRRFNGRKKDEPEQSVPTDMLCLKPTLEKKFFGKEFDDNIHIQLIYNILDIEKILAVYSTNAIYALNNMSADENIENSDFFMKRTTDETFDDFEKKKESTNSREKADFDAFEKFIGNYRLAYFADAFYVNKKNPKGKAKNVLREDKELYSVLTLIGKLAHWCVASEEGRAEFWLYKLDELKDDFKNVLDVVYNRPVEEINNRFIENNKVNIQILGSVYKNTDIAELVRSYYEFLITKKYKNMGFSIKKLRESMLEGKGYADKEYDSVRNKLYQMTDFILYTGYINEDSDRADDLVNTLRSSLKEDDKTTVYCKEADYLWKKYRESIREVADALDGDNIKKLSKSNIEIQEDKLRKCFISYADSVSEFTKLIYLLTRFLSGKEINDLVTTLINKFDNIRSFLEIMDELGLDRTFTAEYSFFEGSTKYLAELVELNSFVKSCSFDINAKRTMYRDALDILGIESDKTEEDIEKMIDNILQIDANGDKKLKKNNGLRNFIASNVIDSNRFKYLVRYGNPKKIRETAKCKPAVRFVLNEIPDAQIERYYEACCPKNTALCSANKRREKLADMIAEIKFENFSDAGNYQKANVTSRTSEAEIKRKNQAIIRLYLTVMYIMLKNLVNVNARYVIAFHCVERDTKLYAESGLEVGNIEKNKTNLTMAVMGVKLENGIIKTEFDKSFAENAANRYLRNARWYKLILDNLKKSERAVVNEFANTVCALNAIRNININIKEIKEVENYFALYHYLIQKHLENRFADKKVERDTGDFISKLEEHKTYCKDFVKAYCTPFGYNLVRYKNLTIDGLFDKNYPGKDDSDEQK
# Target: T1, EsCas13d, nuclease-dead
# Experiment: crRNA (strand 1, pre-loaded); Mg2+; 40 mM Tris-HCl pH 7.5, 150 mM NaCl, 6 mM MgCl2, 1 mM DTT, 0.1% Tween-20, 0.2 mg/ml BSA; 25 C; 10 min per concentration, then washed
# Details: tags: His6-TwinStrep-SUMO cleaved; N-terminal SNAP kept (SNAP-Surface 488); label: 3' end held by stalled T7 RNA polymerase
row,Binder,Kd [nM]
1,target 1 MT 5'PFS GUU 3'PFS ACC (mixed) RNA 1: CACCCGUGCAAAAAUGCAGGGGUCUAAAACUGAGCGGAUAACCUCUCUAUGG RNA 2: GGGAAUGGAUCCACAUCUACGAAUUCGUUCCAUAGAGAGGUUAUCCGCUCAACCAGAUCGGAAGAGCACACGU,17.6 ± 3.3
2,target 1 MT 5'PFS AGA 3'PFS CAA (mixed) RNA 1: CACCCGUGCAAAAAUGCAGGGGUCUAAAACUGAGCGGAUAACCUCUCUAUGG RNA 2: GGGAAUGGAUCCACAUCUACGAAUUCAGACCAUAGAGAGGUUAUCCGCUCACAAAGAUCGGAAGAGCACACGU,~37
3,target 1 MT 5'PFS ACU 3'PFS AAA (mixed) RNA 1: CACCCGUGCAAAAAUGCAGGGGUCUAAAACUGAGCGGAUAACCUCUCUAUGG RNA 2: GGGAAUGGAUCCACAUCUACGAAUUCACUCCAUAGAGAGGUUAUCCGCUCAAAAAGAUCGGAAGAGCACACGU,~75.5
4,target 1 MT 5'PFS GUA 3'PFS CCC (mixed) RNA 1: CACCCGUGCAAAAAUGCAGGGGUCUAAAACUGAGCGGAUAACCUCUCUAUGG RNA 2: GGGAAUGGAUCCACAUCUACGAAUUCGUACCAUAGAGAGGUUAUCCGCUCACCCAGAUCGGAAGAGCACACGU,12.6 ± 2.1
5,target 1 MT 5'PFS UCA 3'PFS UCC (mixed) RNA 1: CACCCGUGCAAAAAUGCAGGGGUCUAAAACUGAGCGGAUAACCUCUCUAUGG RNA 2: GGGAAUGGAUCCACAUCUACGAAUUCUCACCAUAGAGAGGUUAUCCGCUCAUCCAGAUCGGAAGAGCACACGU,12.5 ± 4.5
6,target 1 MT 5'PFS GUA 3'PFS CCU (mixed) RNA 1: CACCCGUGCAAAAAUGCAGGGGUCUAAAACUGAGCGGAUAACCUCUCUAUGG RNA 2: GGGAAUGGAUCCACAUCUACGAAUUCGUACCAUAGAGAGGUUAUCCGCUCACCUAGAUCGGAAGAGCACACGU,7.3 ± 0.8
7,"target 1 insU 3' of 21,insC 3' of 3 (mixed) RNA 1: CACCCGUGCAAAAAUGCAGGGGUCUAAAACUGAGCGGAUAACCUCUCUAUGG RNA 2: GGGAAUGGAUCCACAUCUACGAAUUCGUACCUAUAGAGAGGUUAUCCGCUCCACCGAGAUCGGAAGAGCACACGU",22.7 ± 1.4
8,target 1 MT 5'PFS GUA 3'PFS CCA (mixed) RNA 1: CACCCGUGCAAAAAUGCAGGGGUCUAAAACUGAGCGGAUAACCUCUCUAUGG RNA 2: GGGAAUGGAUCCACAUCUACGAAUUCGUACCAUAGAGAGGUUAUCCGCUCACCAAGAUCGGAAGAGCACACGU,19.6 ± 2.4
9,target 1 MT 5'PFS UAG 3'PFS UCC (mixed) RNA 1: CACCCGUGCAAAAAUGCAGGGGUCUAAAACUGAGCGGAUAACCUCUCUAUGG RNA 2: GGGAAUGGAUCCACAUCUACGAAUUCUAGCCAUAGAGAGGUUAUCCGCUCAUCCAGAUCGGAAGAGCACACGU,63.5 ± 20
10,target 1 MT 5'PFS CCC 3'PFS UUG (mixed) RNA 1: CACCCGUGCAAAAAUGCAGGGGUCUAAAACUGAGCGGAUAACCUCUCUAUGG RNA 2: GGGAAUGGAUCCACAUCUACGAAUUCCCCCCAUAGAGAGGUUAUCCGCUCAUUGAGAUCGGAAGAGCACACGU,~11.5
11,target 1 MT 5'PFS UAG 3'PFS UCG (mixed) RNA 1: CACCCGUGCAAAAAUGCAGGGGUCUAAAACUGAGCGGAUAACCUCUCUAUGG RNA 2: GGGAAUGGAUCCACAUCUACGAAUUCUAGCCAUAGAGAGGUUAUCCGCUCAUCGAGAUCGGAAGAGCACACGU,20.1 ± 3.45
12,target 1 MT 5'PFS CCC 3'PFS UUU (mixed) RNA 1: CACCCGUGCAAAAAUGCAGGGGUCUAAAACUGAGCGGAUAACCUCUCUAUGG RNA 2: GGGAAUGGAUCCACAUCUACGAAUUCCCCCCAUAGAGAGGUUAUCCGCUCAUUUAGAUCGGAAGAGCACACGU,9.7 ± 4.5
13,target 1 MT 5'PFS UCG 3'PFS CGA (mixed) RNA 1: CACCCGUGCAAAAAUGCAGGGGUCUAAAACUGAGCGGAUAACCUCUCUAUGG RNA 2: GGGAAUGGAUCCACAUCUACGAAUUCUCGCCAUAGAGAGGUUAUCCGCUCACGAAGAUCGGAAGAGCACACGU,51 ± 22.5
14,"target 1 insA 3' of 8,insA 3' of 3 (mixed) RNA 1: CACCCGUGCAAAAAUGCAGGGGUCUAAAACUGAGCGGAUAACCUCUCUAUGG RNA 2: GGGAAUGGAUCCACAUCUACGAAUUCGUACCAUAGAGAGGUUAUACCGCUACACCGAGAUCGGAAGAGCACACGU",10.4 ± 0.4
15,target 1 MT 5'PFS UUG 3'PFS AGA (mixed) RNA 1: CACCCGUGCAAAAAUGCAGGGGUCUAAAACUGAGCGGAUAACCUCUCUAUGG RNA 2: GGGAAUGGAUCCACAUCUACGAAUUCUUGCCAUAGAGAGGUUAUCCGCUCAAGAAGAUCGGAAGAGCACACGU,90 ± 40
16,target 1 MT 5'PFS ACG 3'PFS ACA (mixed) RNA 1: CACCCGUGCAAAAAUGCAGGGGUCUAAAACUGAGCGGAUAACCUCUCUAUGG RNA 2: GGGAAUGGAUCCACAUCUACGAAUUCACGCCAUAGAGAGGUUAUCCGCUCAACAAGAUCGGAAGAGCACACGU,25 ± 8
17,target 1 MT 5'PFS CUG 3'PFS UUG (mixed) RNA 1: CACCCGUGCAAAAAUGCAGGGGUCUAAAACUGAGCGGAUAACCUCUCUAUGG RNA 2: GGGAAUGGAUCCACAUCUACGAAUUCCUGCCAUAGAGAGGUUAUCCGCUCAUUGAGAUCGGAAGAGCACACGU,4.45 ± 0.6
18,target 1 MT 5'PFS ACU 3'PFS AAU (mixed) RNA 1: CACCCGUGCAAAAAUGCAGGGGUCUAAAACUGAGCGGAUAACCUCUCUAUGG RNA 2: GGGAAUGGAUCCACAUCUACGAAUUCACUCCAUAGAGAGGUUAUCCGCUCAAAUAGAUCGGAAGAGCACACGU,~60
19,target 1 MT 5'PFS CAA 3'PFS CAU (mixed) RNA 1: CACCCGUGCAAAAAUGCAGGGGUCUAAAACUGAGCGGAUAACCUCUCUAUGG RNA 2: GGGAAUGGAUCCACAUCUACGAAUUCCAACCAUAGAGAGGUUAUCCGCUCACAUAGAUCGGAAGAGCACACGU,32.5 ± 9.5
20,target 1 MT 5'PFS ACG 3'PFS ACU (mixed) RNA 1: CACCCGUGCAAAAAUGCAGGGGUCUAAAACUGAGCGGAUAACCUCUCUAUGG RNA 2: GGGAAUGGAUCCACAUCUACGAAUUCACGCCAUAGAGAGGUUAUCCGCUCAACUAGAUCGGAAGAGCACACGU,10.4 ± 3.5
21,target 1 MT 5'PFS UAG 3'PFS UCA (mixed) RNA 1: CACCCGUGCAAAAAUGCAGGGGUCUAAAACUGAGCGGAUAACCUCUCUAUGG RNA 2: GGGAAUGGAUCCACAUCUACGAAUUCUAGCCAUAGAGAGGUUAUCCGCUCAUCAAGAUCGGAAGAGCACACGU,25 ± 5
22,target 1 MT 5'PFS ACA 3'PFS CGG (mixed) RNA 1: CACCCGUGCAAAAAUGCAGGGGUCUAAAACUGAGCGGAUAACCUCUCUAUGG RNA 2: GGGAAUGGAUCCACAUCUACGAAUUCACACCAUAGAGAGGUUAUCCGCUCACGGAGAUCGGAAGAGCACACGU,~70
23,target 1 MT 5'PFS UUG 3'PFS AGU (mixed) RNA 1: CACCCGUGCAAAAAUGCAGGGGUCUAAAACUGAGCGGAUAACCUCUCUAUGG RNA 2: GGGAAUGGAUCCACAUCUACGAAUUCUUGCCAUAGAGAGGUUAUCCGCUCAAGUAGAUCGGAAGAGCACACGU,84 ± 33
24,target 1 MT 5'PFS AGA 3'PFS CAC (mixed) RNA 1: CACCCGUGCAAAAAUGCAGGGGUCUAAAACUGAGCGGAUAACCUCUCUAUGG RNA 2: GGGAAUGGAUCCACAUCUACGAAUUCAGACCAUAGAGAGGUUAUCCGCUCACACAGAUCGGAAGAGCACACGU,~110
25,target 1 MT 5'PFS UCA 3'PFS UCG (mixed) RNA 1: CACCCGUGCAAAAAUGCAGGGGUCUAAAACUGAGCGGAUAACCUCUCUAUGG RNA 2: GGGAAUGGAUCCACAUCUACGAAUUCUCACCAUAGAGAGGUUAUCCGCUCAUCGAGAUCGGAAGAGCACACGU,31.5 ± 14.5
26,target 1 MT 5'PFS ACA 3'PFS AAG (mixed) RNA 1: CACCCGUGCAAAAAUGCAGGGGUCUAAAACUGAGCGGAUAACCUCUCUAUGG RNA 2: GGGAAUGGAUCCACAUCUACGAAUUCACACCAUAGAGAGGUUAUCCGCUCAAAGAGAUCGGAAGAGCACACGU,18 ± 6
27,target 1 MT 5'PFS UUA 3'PFS UAU (mixed) RNA 1: CACCCGUGCAAAAAUGCAGGGGUCUAAAACUGAGCGGAUAACCUCUCUAUGG RNA 2: GGGAAUGGAUCCACAUCUACGAAUUCUUACCAUAGAGAGGUUAUCCGCUCAUAUAGAUCGGAAGAGCACACGU,12.7 ± 1.35
28,target 1 MT 5'PFS CCC 3'PFS UUC (mixed) RNA 1: CACCCGUGCAAAAAUGCAGGGGUCUAAAACUGAGCGGAUAACCUCUCUAUGG RNA 2: GGGAAUGGAUCCACAUCUACGAAUUCCCCCCAUAGAGAGGUUAUCCGCUCAUUCAGAUCGGAAGAGCACACGU,~15
